Measured values reported in the supplement of paper PMC9233669.
Variants at the floor of the assay were thinned out.

Tests used:
biotinyl-Trp-oxazolone = experiment: self-aminoacylation, catalytic enhancement (BWO) (fold over background); higher = more active; k-Seq, kA / k0A0; sequences stand for … in GGGAAUGGAUCCACAUCUACGAAUUC…UUCACUGCAGACUUGACGAAGCUG
In short: (§1)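 Mutagenized RNA pools (0.43 μM; 21-nt variable region) were treated with 2–1250 μM of each biotinyl-aminoacyl-oxazolone. Conditions were 50 μL HEPES/NaCl/KCl/MgCl2/CaCl2 buffer, 5% acetonitrile, pH 6.9–7.0, room temperature, 90 minutes. Catalytic enhancement, the median kA relative to the uncatalyzed rate, was derived from streptavidin capture, qPCR and Illumina sequencing.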

biotinyl-Phe-oxazolone = experiment: self-aminoacylation, catalytic enhancement (BFO) (fold over background); higher = more active; k-Seq, kA / k0A0; sequences stand for … in GGGAAUGGAUCCACAUCUACGAAUUC…UUCACUGCAGACUUGACGAAGCUG
In short: as §1

biotinyl-Met-oxazolone = experiment: self-aminoacylation, catalytic enhancement (BMO) (fold over background); higher = more active; k-Seq, kA / k0A0; sequences stand for … in GGGAAUGGAUCCACAUCUACGAAUUC…UUCACUGCAGACUUGACGAAGCUG
In short: as §1

biotinyl-Leu-oxazolone = experiment: self-aminoacylation, catalytic enhancement (BLO) (fold over background); higher = more active; k-Seq, kA / k0A0; sequences stand for … in GGGAAUGGAUCCACAUCUACGAAUUC…UUCACUGCAGACUUGACGAAGCUG
In short: as §1

biotinyl-Ile-oxazolone = experiment: self-aminoacylation, catalytic enhancement (BIO) (fold over background); higher = more active; k-Seq, kA / k0A0; sequences stand for … in GGGAAUGGAUCCACAUCUACGAAUUC…UUCACUGCAGACUUGACGAAGCUG
In short: as §1

biotinyl-Val-oxazolone = experiment: self-aminoacylation, catalytic enhancement (BVO) (fold over background); higher = more active; k-Seq, kA / k0A0; sequences stand for … in GGGAAUGGAUCCACAUCUACGAAUUC…UUCACUGCAGACUUGACGAAGCUG
In short: as §1

Sequence | self-aminoacylation (biotinyl-Trp-oxazolone) | self-aminoacylation (biotinyl-Phe-oxazolone) | self-aminoacylation (biotinyl-Met-oxazolone) | self-aminoacylation (biotinyl-Leu-oxazolone) | self-aminoacylation (biotinyl-Ile-oxazolone) | self-aminoacylation (biotinyl-Val-oxazolone)
AUUGCCCGGGUCAUCGAGUGA [Fam2.1 aminoacylation ribozyme variant] | 6.49 | 45.4 | 6.39 | 7.35 | 3.01 | 3.8
CCACAUCUCAAGCAAUCGGUC [Fam1B.1 aminoacylation ribozyme variant] | 1.08 | 1.41 | 0.985 | 1.19 | 1.3 | 1.33
UAGUUUGCUACUAGUCGCAAG [Fam3.1 aminoacylation ribozyme variant] | 1.23 | 1.57 | 1.24 | 1.23 | 1.42 | 1.1
AUACACGUAGGUCAUCGGGUG [Fam2.2 aminoacylation ribozyme variant] | 3.2 | 17.3 | 3.63 | 3.2 | 2.19 | 2.67
CUAUUUCAAAAAAUCGGUCUG [Fam1A.1 aminoacylation ribozyme variant] | 1.73 | 2.31 | 1 | 1.18 | 1.13 | 0.85
AUUCACCUAGGUCAUAGUGUG [Fam2.2 aminoacylation ribozyme variant] | 0.453 | 0.512 | 0.625 | 0.67 | 0.658 | 0.727
AUUGCCCUGGUCAUCUAGUGA [Fam2.1 aminoacylation ribozyme variant] | 10.3 | 70.6 | 8.83 | 8.79 | 3.81 | 4.24
AGUCACCUAGGCCAUCGGGUG [Fam2.2 aminoacylation ribozyme variant] | 5.32 | 25 | 3.86 | 3.53 | 3.31 | 3.96
CUACUUCAAACAAGCGGACUG [Fam1A.1 aminoacylation ribozyme variant] | 0.644 | 0.818 | 0.81 | 0.631 | 0.91 | 0.896
CCACACUGGAAGCAAUCGGUC [Fam1B.1 aminoacylation ribozyme variant] | 0.543 | 0.508 | 0.78 | 0.737 | 0.881 | 1.08
CCACACUUCGAGCAAGCGGUC [Fam1B.1 aminoacylation ribozyme variant] | 0.82 | 0.487 | 0.927 | 0.874 | 0.864 | 1.19
CUCCUUCAAACAUUCGGUCUG [Fam1A.1 aminoacylation ribozyme variant] | 1.66 | 3.15 | 1.31 | 1.05 | 1.24 | 1.32
CUACUUCAUACAAUCGCUCUG [Fam1A.1 aminoacylation ribozyme variant] | 0.357 | 0.52 | 0.626 | 0.605 | 0.66 | 0.627
CUACUUCAGACAAGCGGUCUG [Fam1A.1 aminoacylation ribozyme variant] | 0.406 | 0.263 | 1.26 | 0.966 | 0.839 | 0.96
AUUACGCUGGUCAUCGAGUUA [Fam2.1 aminoacylation ribozyme variant] | 0.917 | 0.893 | 1.54 | 1.41 | 1.28 | 1.43
AUUAACCUAGGUCAUCGGUUG [Fam2.2 aminoacylation ribozyme variant] | 1.05 | 3.47 | 1.07 | 1.19 | 1.02 | 1.09
AAGUUUGAUAACAGUCGCAAG [Fam3.1 aminoacylation ribozyme variant] | 0.569 | 0.983 | 0.877 | 0.548 | 0.929 | 0.798
AAGUUUGUUAAUAAUCGCAAG [Fam3.1 aminoacylation ribozyme variant] | 0.883 | 1.05 | 0.824 | 0.995 | 0.928 | 0.842
CUACUUGAAACAAUCCGUCUG [Fam1A.1 aminoacylation ribozyme variant] | 1.44 | 0.462 | 1.03 | 0.759 | 0.813 | 0.836
AUUCACCUAGGUCAUCCGAUG [Fam2.2 aminoacylation ribozyme variant] | 1.09 | 2.62 | 1.54 | 1.24 | 1.43 | 1.95
AAGUAUGCGAAUAGUCGCAAG [Fam3.1 aminoacylation ribozyme variant] | 0.948 | 1.74 | 1.13 | 1.19 | 1.32 | 1
CUUACCCUGGUCAUCGAGUGG [Fam2.1 aminoacylation ribozyme variant] | 7.54 | 16.9 | 8.78 | 8.35 | 3.47 | 3.74
CCGCACUUCAACCAAUCGGUC [Fam1B.1 aminoacylation ribozyme variant] | 67.5 | 148 | 2.05 | 3.41 | 2.09 | 2.38
